# Experimental data from patent US20240270846A1 (published 2024).
# Positions count from the first letter of the chain named. Names may count otherwise.
# B1: CE115HA000 Y59S one-arm antibody (antibody, human IgG1, kappa, L234A L235A, N297A, name in Kabat numbering)
# heavy: QVQLVESGGGVVQPGRSLRLSCAASGFTFSNAWMHWVRQAPGKGLEWVAQIKAKSNNYATYSAESVKGRFTISRDDSKNSLYLQMNSLKTEDTAVYYCRYVHYGAYYGVDAWGQGTTVTVSSASTKGPSVFPLAPSSKSTSGGTAALGCLVKDYFPEPVTVSWNSGALTSGVHTFPAVLQSSGLYSLSSVVTVPSSSLGTQTYICNVNHKPSNTKVDKKVEPKSCDKTHTCPPCPAPEAAGGPSVFLFPPKPKDTLMISRTPEVTCVVVDVSHEDPEVKFNWYVDGVEVHNAKTKPREEQYASTYRVVSVLTVLHQDWLNGKEYKCKVSNKALPAPIEKTISKAKGQPREPQVYTLPPSRCELTKNQVSLSCAVKGFYPSDIAVEWESNGQPENNYKTTPPVLDSDGSFFLVSKLTVDKSRWQQGNVFSCSVMHEALHNHYTQKSLSLSPDYKDDDDK
# chain: EPKSSDKTHTCPPCPAPELLGGPSVFLFPPKPKDTLMISRTPEVTCVVVDVSHEDPEVKFNWYVDGVEVHNAKTKPREEQYNSTYRVVSVLTVLHQDWLNGKEYKCKVSNKALPAPIEKTISKAKGQPREPQVCTLPPSRDELTKNQVSLWCLVKGFYPSDIAVEWESNGQPENNYKTTPPVLDSDGSFFLYSKLTVDKSRWQQGNVFSCSVMHEALHNRYTQKSLSLSP
# light: DIVMTQSPLSLPVTPGEPASISCRSSQSLVHSNRNTYLHWYQQKPGQAPRLLIYKVSNRFSGVPDRFSGSGSGTDFTLKISRVEAEDVGVYYCGQGTQVPYTFGQGTKLEIKRTVAAPSVFIFPPSDEQLKSGTASVVCLLNNFYPREAKVQWKVDNALQSGNSQESVTEQDSKDSTYSLSSTLTLSKADYEKHKVYACEVTHQGLSSPVTKSFNRGEC
# notes: one-arm antibody (one Fab)
# B2: CE115HA000 Y100aD one-arm antibody (antibody, human IgG1, kappa, L234A L235A, N297A, name in Kabat numbering)
# heavy: B1 heavy with S62Y, Y107D
# chain: B1 chain
# light: B1 light
# notes: one-arm antibody (one Fab)
# B3: CE115HA000 Y97D one-arm antibody (antibody, human IgG1, kappa, L234A L235A, N297A, name in Kabat numbering)
# heavy: B1 heavy with S62Y, Y103D
# chain: B1 chain
# light: B1 light
# notes: one-arm antibody (one Fab)
# B4: CE115HA000 Y97A one-arm antibody (antibody, human IgG1, kappa, L234A L235A, N297A, name in Kabat numbering)
# heavy: B1 heavy with S62Y, Y103A
# chain: B1 chain
# light: B1 light
# notes: one-arm antibody (one Fab)
# B5: CE115HA000 Y100D one-arm antibody (antibody, human IgG1, kappa, L234A L235A, N297A, name in Kabat numbering)
# heavy: B1 heavy with S62Y, Y106D
# chain: B1 chain
# light: B1 light
# notes: one-arm antibody (one Fab)
# B6: CE115HA000 Y100P one-arm antibody (antibody, human IgG1, kappa, L234A L235A, N297A, name in Kabat numbering)
# heavy: B1 heavy with S62Y, Y106P
# chain: B1 chain
# light: B1 light
# notes: one-arm antibody (one Fab)
# B7: CE115HA000 Y100V one-arm antibody (antibody, human IgG1, kappa, L234A L235A, N297A, name in Kabat numbering)
# heavy: B1 heavy with S62Y, Y106V
# chain: B1 chain
# light: B1 light
# notes: one-arm antibody (one Fab)
# B8: CE115HA000 Y100K one-arm antibody (antibody, human IgG1, kappa, L234A L235A, N297A, name in Kabat numbering)
# heavy: B1 heavy with S62Y, Y106K
# chain: B1 chain
# light: B1 light
# notes: one-arm antibody (one Fab)
# B9: CE115HA000 Y100G one-arm antibody (antibody, human IgG1, kappa, L234A L235A, N297A, name in Kabat numbering)
# heavy: B1 heavy with S62Y, Y106G
# chain: B1 chain
# light: B1 light
# notes: one-arm antibody (one Fab)
# B10: CE115HA000 Y97G one-arm antibody (antibody, human IgG1, kappa, L234A L235A, N297A, name in Kabat numbering)
# heavy: B1 heavy with S62Y, Y103G
# chain: B1 chain
# light: B1 light
# notes: one-arm antibody (one Fab)
# B11: CE115HA000 Y100W one-arm antibody (antibody, human IgG1, kappa, L234A L235A, N297A, name in Kabat numbering)
# heavy: B1 heavy with S62Y, Y106W
# chain: B1 chain
# light: B1 light
# notes: one-arm antibody (one Fab)
# B12: CE115HA000 Y100aL one-arm antibody (antibody, human IgG1, kappa, L234A L235A, N297A, name in Kabat numbering)
# heavy: B1 heavy with S62Y, Y107L
# chain: B1 chain
# light: B1 light
# notes: one-arm antibody (one Fab)
# B13: CE115HA000 Y97R one-arm antibody (antibody, human IgG1, kappa, L234A L235A, N297A, name in Kabat numbering)
# heavy: B1 heavy with S62Y, Y103R
# chain: B1 chain
# light: B1 light
# notes: one-arm antibody (one Fab)
# B14: CE115HA000 Y100Q one-arm antibody (antibody, human IgG1, kappa, L234A L235A, N297A, name in Kabat numbering)
# heavy: B1 heavy with S62Y, Y106Q
# chain: B1 chain
# light: B1 light
# notes: one-arm antibody (one Fab)
# B15: CE115HA000 Y100aA one-arm antibody (antibody, human IgG1, kappa, L234A L235A, N297A, name in Kabat numbering)
# heavy: B1 heavy with S62Y, Y107A
# chain: B1 chain
# light: B1 light
# notes: one-arm antibody (one Fab)
# B16: CE115HA000 Y97P one-arm antibody (antibody, human IgG1, kappa, L234A L235A, N297A, name in Kabat numbering)
# heavy: B1 heavy with S62Y, Y103P
# chain: B1 chain
# light: B1 light
# notes: one-arm antibody (one Fab)
# B17: CE115HA000 Y100aK one-arm antibody (antibody, human IgG1, kappa, L234A L235A, N297A, name in Kabat numbering)
# heavy: B1 heavy with S62Y, Y107K
# chain: B1 chain
# light: B1 light
# notes: one-arm antibody (one Fab)
# B18: CE115HA000 Y100L one-arm antibody (antibody, human IgG1, kappa, L234A L235A, N297A, name in Kabat numbering)
# heavy: B1 heavy with S62Y, Y106L
# chain: B1 chain
# light: B1 light
# notes: one-arm antibody (one Fab)
# B19: CE115HA000 Y97S one-arm antibody (antibody, human IgG1, kappa, L234A L235A, N297A, name in Kabat numbering)
# heavy: B1 heavy with S62Y, Y103S
# chain: B1 chain
# light: B1 light
# notes: one-arm antibody (one Fab)
# B20: CE115HA000 Y100S one-arm antibody (antibody, human IgG1, kappa, L234A L235A, N297A, name in Kabat numbering)
# heavy: B1 heavy with S62Y, Y106S
# chain: B1 chain
# light: B1 light
# notes: one-arm antibody (one Fab)
# B21: CE115HA000 Y100aG one-arm antibody (antibody, human IgG1, kappa, L234A L235A, N297A, name in Kabat numbering)
# heavy: B1 heavy with S62Y, Y107G
# chain: B1 chain
# light: B1 light
# notes: one-arm antibody (one Fab)
# B22: CE115HA000 Y100A one-arm antibody (antibody, human IgG1, kappa, L234A L235A, N297A, name in Kabat numbering)
# heavy: B1 heavy with S62Y, Y106A
# chain: B1 chain
# light: B1 light
# notes: one-arm antibody (one Fab)
# B23: CE115HA000 Y100aF one-arm antibody (antibody, human IgG1, kappa, L234A L235A, N297A, name in Kabat numbering)
# heavy: B1 heavy with S62Y, Y107F
# chain: B1 chain
# light: B1 light
# notes: one-arm antibody (one Fab)
# Target: T1, CD3 epsilon homodimer protein (UniProt P07766 23-126)
# T1 construct: Immobilized on Sensor chip CM4 by amine coupling; construct not described; also called CD3 (CD3 epsilon)
# Assay: SPR Biacore T200, CD3 epsilon homodimer on CM4 chip, antibody as analyte;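 further: Amine-coupled CD3 epsilon homodimer, run at 25 °C in HBS-EP+ buffer, ratio is bound amount of each single-residue H chain variant over that of the parent antibody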
# T1 sequence (P07766 23-126): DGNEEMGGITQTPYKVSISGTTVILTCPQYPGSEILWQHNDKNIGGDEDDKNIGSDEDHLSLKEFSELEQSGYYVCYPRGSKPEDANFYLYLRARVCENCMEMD
row,ratio of amounts bound (Y/X vs CE115HA000),Binder
1,0.94,B1
2,0.31,B2
3,0.24,B3
4,0.16,B4
5,0.52,B5
6,0.48,B6
7,0.6,B7
8,1.07,B8
9,1.07,B9
10,0.18,B10
11,1.03,B11
12,0.48,B12
13,0.27,B13
14,0.8,B14
15,0.62,B15
16,0.11,B16
17,0.9,B17
18,0.7,B18
19,0.18,B19
20,0.81,B20
21,1.23,B21
22,0.9,B22
23,0.87,B23
